Experiments:
[1] = molecular target: MR766KD VLPs (Zika virus MR766 VLPs with E106/107 GL to KD, expressed by plasmid pEZMRprME KD) (Zika virus strain MR766) (UniProt Q32ZE1); test: ratio of antibody end-point titers on wt and KD VLPs
[2] = molecular target: BzHuKD VLPs (Zika virus BPH2015 VLPs with E106/107 GL to KD, expressed by plasmid pEBZHu2-3 KD) (Zika virus strain BPH2015); test: as above
[3] = molecular target: MR766wt VLPs (Zika virus MR766 prM and E virus-like particles expressed by plasmid pEZMRprME1-8) (Zika virus strain MR766) (UniProt Q32ZE1); test: antibody end-point titration on VLPs (COS-1 supernatant)
[4] = molecular target: BzHuwt VLPs (Zika virus BPH2015 prM and E VLPs expressed by plasmid pEBZHu2-3, pr1-Ala deletion clone) (Zika virus strain BPH2015); test: as above

“flavivirus group-cross reactive murine monoclonal antibody 4G2” was tested, and the Fold changes (MR766wt VLPs against MR766KD VLPs) [1] was over 2190 fold, the Fold changes (BzHuwt VLPs against BzHuKD VLPs) [2] was over 729 fold and the Antibody end-point titers [3] was over 2.19e+06. The Antibody end-point titers [4] was 729000.
